Blank lines part the entries; values can stand above or below the binder they belong to.
What was measured:
[1] = molecular target: rat LTBP1-proTGFβ1 complex (rat, UniProt Q00918 339-1712; P17246 30-390); test: Octet (BLI) binding assay as in Table 6
Protocol: a. Dilute both antibodies to 50 μg/mL in 300 μl of 1x buffer in row A. b. Add 200 μl of buffer to the rest of each column c. Transfer 100 μl down the column to make 3-fold dilutions

proTGFβ2 = molecular target: T1, proTGFβ2 (Chlorocebus aethiops (Green monkey) …, UniProt P61811 20-414); test: ELISA
T1 sequence: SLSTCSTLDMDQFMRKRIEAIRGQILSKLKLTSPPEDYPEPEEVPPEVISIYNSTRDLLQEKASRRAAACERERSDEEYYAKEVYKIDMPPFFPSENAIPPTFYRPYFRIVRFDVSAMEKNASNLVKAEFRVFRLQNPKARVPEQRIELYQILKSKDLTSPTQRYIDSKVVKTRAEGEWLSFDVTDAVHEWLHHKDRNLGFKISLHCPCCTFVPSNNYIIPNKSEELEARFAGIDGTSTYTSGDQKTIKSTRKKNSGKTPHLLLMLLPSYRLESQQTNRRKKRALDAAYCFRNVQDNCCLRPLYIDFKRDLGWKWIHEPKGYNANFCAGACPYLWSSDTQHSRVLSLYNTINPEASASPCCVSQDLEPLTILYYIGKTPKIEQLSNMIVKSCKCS

proTGFβ3 = molecular target: T2, proTGFβ3 (Homo sapiens (Human), UniProt P10600 24-412); test: ELISA
T2 sequence: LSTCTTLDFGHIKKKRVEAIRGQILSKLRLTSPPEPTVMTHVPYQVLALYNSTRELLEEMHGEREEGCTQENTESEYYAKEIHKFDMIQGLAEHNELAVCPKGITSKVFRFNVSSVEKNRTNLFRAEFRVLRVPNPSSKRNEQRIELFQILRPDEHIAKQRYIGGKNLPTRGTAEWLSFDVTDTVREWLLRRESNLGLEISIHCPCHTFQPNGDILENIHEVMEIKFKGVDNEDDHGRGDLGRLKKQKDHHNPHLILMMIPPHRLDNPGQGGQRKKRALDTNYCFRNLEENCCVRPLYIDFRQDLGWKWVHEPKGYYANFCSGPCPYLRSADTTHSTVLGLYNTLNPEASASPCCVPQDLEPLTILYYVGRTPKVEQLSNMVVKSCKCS

Sequence of rat LTBP1-proTGFβ1 complex (Q00918 339-1712, chain 1 of 2): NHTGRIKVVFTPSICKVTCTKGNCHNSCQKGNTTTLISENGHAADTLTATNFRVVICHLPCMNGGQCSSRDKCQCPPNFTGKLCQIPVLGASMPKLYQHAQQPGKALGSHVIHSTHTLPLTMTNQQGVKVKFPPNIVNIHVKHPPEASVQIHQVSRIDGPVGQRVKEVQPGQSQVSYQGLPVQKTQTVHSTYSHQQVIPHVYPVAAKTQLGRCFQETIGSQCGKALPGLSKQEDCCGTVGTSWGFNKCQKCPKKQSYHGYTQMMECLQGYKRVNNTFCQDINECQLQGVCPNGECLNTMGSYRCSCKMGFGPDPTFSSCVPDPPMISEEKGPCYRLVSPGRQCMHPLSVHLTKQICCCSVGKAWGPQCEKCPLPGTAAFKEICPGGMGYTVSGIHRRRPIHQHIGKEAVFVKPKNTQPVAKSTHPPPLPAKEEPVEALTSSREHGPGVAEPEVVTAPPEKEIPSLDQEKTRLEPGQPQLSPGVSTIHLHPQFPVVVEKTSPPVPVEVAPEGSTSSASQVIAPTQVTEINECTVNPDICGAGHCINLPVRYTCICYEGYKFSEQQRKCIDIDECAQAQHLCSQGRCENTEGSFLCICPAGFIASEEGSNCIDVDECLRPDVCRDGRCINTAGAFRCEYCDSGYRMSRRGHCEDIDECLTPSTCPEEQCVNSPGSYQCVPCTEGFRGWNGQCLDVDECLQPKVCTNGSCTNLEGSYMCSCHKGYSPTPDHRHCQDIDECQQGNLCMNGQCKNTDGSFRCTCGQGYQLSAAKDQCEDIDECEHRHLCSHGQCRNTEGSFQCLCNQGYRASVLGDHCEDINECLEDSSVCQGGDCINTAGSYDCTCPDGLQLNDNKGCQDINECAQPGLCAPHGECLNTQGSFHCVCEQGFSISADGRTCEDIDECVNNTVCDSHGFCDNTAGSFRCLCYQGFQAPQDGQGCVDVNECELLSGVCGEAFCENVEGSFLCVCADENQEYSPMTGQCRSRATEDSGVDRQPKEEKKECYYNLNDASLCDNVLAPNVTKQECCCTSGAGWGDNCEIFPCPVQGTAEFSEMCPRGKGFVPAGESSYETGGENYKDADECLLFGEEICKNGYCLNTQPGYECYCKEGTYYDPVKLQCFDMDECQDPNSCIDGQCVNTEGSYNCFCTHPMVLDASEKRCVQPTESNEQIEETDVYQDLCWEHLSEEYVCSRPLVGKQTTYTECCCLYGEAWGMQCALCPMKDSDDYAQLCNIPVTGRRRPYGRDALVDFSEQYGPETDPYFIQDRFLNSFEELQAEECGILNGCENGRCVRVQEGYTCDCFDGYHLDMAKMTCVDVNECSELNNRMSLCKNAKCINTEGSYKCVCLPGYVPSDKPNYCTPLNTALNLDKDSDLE
Sequence of rat LTBP1-proTGFβ1 complex (P17246 30-390, chain 2 of 2): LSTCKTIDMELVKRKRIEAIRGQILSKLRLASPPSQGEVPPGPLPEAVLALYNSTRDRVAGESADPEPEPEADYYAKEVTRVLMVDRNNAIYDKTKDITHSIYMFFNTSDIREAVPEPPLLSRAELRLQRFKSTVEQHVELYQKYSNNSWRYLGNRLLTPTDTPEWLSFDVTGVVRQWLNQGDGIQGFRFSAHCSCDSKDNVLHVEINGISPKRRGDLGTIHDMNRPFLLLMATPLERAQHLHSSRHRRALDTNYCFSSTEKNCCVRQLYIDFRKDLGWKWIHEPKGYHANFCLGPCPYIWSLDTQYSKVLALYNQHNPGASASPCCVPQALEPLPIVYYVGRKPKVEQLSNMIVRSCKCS

binding result [1]: no binding
binding result (proTGFβ2): no binding
binding result (proTGFβ3): no binding
B1: Ab1 (antibody, human IgG4 S228P, lambda, V domains shown)
VH: EVQLVESGGGLVQPGRSLRLSCAASGFTFSSYGMHWVRQAPGKGLEWVAVISYDGSNKYYADSVKGRFTISRDNSKNTLYLQMNSLRAEDTAVYYCARDIRPYGDYSAAFDIWGQGTLVTVSS
VL: NFMLTQPHSVSESPGKTVTISCTGSSGSIASNYVQWYQQRPGSAPSIVIFEDNQRPSGAPDRFSGSIDSSSNSASLTISGLKTEDEADYYCQSYDSSNHGGVFGGGTQLTVLG
notes: also called antibody Ab1; clone Ab1

binding result (proTGFβ2): no binding
binding result (proTGFβ3): no binding
B2: Ab2 (antibody, V domains shown)
VH: EVQLVQSGAEMKKPGESLKISCKGSGYNFASDWIGWVRQTPGKGLEWMGVIYPGDSDTRYSASFQGQVTISADKSINTAYLQWSSLKASDTAMYYCASAAGIAAAGHVTAFDIWGQGTMVTVSS
VL: not shown
notes: also called antibody Ab2; clone Ab2
